B1: SWI/SNF complex subunit SMARCC2, residues 599 to 641; numbered along this chain, Q8TAQ2 (parent)
chain: REWTEQETLLLLEALEMYKDDWNKVSEHVGSRTQDECILHFLR

Variants of: B1
Assay: abundance fitness (aPCA) (normalised: wild type 0, dead -1); higher = more abundant; growth selection in yeast, the domain comes from the species named
Conditions: Homo sapiens

Abundance fitness of substitutions, site by site:
W22: D -0.339, R -0.833, Q -0.887, G -0.615, T -0.433, I -0.535, F -0.389, V -0.529, H -0.231, S -0.91, K -0.367, Y -0.115, M -0.412, N -0.759
S31: V -0.218, T 0.287, N 0.057, P -0.434, M 0.042, D 0.06, A -0.019, W -0.024, R -0.219, Q 0.149, G 0.054, E 0.12, H -0.085, Y 0.015, F -0.411, L -0.49
H28: I -0.265, K -0.242, P -0.86, D -1.16, E -0.748, L -0.433, Y -0.225, R -0.294, T -0.256, S -0.747, A -0.381, C -0.376, N -0.853, F -0.401, V -0.322, W -0.138, M -0.341, G -0.341, Q -0.26
E27: P -0.677, V -0.515, H -0.407, R -0.022, G -0.038, W -0.495, Q -0.244, L -0.473, S -0.21, C -0.379, N -0.042, D -0.209, T -0.146
G30: I -0.147, L -0.546, F -0.325, N -0.164, M -0.341, E 0.092, Q -0.668, R -0.211, C -0.064, S -0.143, W -0.832, T -0.031, Y -0.143, A -0.057, H -0.711, K -0.011, D -0.07
D35: F -0.284, R 0.027, Q 0.378, M 0.008, T -0.213, V -0.556, P 0.066, H 0.108, I -0.388, A 0.121, N 0.236, Y -0.486, E -0.035, G 0.046, K 0.047, S 0.087
R32: W -0.583, M -0.202, Y -0.426, C -0.432, A -0.456, G -0.727, P -1.36, E -0.472, H -0.374, D -1.04, K 0.207, F -0.417, Q -0.313, N -0.909, V -0.523, S -1.07, T -0.49
L39: S 0.071, F -0.024, P -0.24, R 0.122, N 0.024, H 0.16, G 0.149, V -0.009, Y -0.108, D 0.642, A 0.154, T 0.235, I -0.21, Q 0.08, E 0.335, W -0.29
S26: Y -0.252, R 0.219, F -0.709, I -0.449, T 0.115, L -0.27, C -0.07, P -0.444, E 0.081, W -0.517, Q -0.449, M 0.199, H 0.095, A 0.303, G 0.084, N -0.62, K 0.211, V 0.071
C37: A -0.332, V -0.134, P -0.708, T -0.525, Q -0.2, F -0.361, K -0.328, L -0.844, W -0.924, N -0.67, E -0.598, R -0.697, H -0.353, S -0.428, D -0.471, G -0.833
K24: D -0.366, N -0.501, F 0.058, W -0.351, E 0.154, A 0.124, T -0.005, M 0.259, H -0.139, S -0.081, C -0.148, L 0.054, R 0.064, P -0.524, V -0.389, Q 0.046
V25: Q -0.853, F -0.349, I 0.235, C 0.316, H -0.578, P -0.823, S -0.528, N -0.275, G -0.755, Y -0.798, R -0.331, M 0.026, W -0.522, D -0.478
V29: R -1.09, E -0.711, H -0.931, F -0.668, A -0.695, C -0.635, M 0.092, K -0.53, D -0.714, L -0.07, Q -0.548, W -0.931, T -0.297, S -1.3, G -0.835, P -0.865
I38: D -0.015, E 0.351, G 0.401, F 0.023, H 0.415, N 0.274, P -0.367, K 0.347, R 0.428, C 0.203, V -0.019, T 0.26, W -0.24, Q 0.098, L 0.12, Y 0.077, S 0.224, A 0.149, M 0.151
T33: K 0.042, Y -0.305, L -0.019, F -0.684, E -0.263, I -0.721, C -0.064, H -0.214, N 0.125, R 0.123, G 0, D 0.079, P -0.17, A 0.045
L42: T 0.519, A 0.334, D 0.726, Q 0.351, F 0.139, G 0.447, V 0.343, M 0.167, W 0.049, K 0.895, R 0.589, S 0.376, H 0.615
N23: P 0.17, I -0.121, F 0.046, H -0.009, K 0.037, V 0.059, D 0.109, R 0.069, T 0.033, W -0.131, M 0.025, A 0.204, S 0.064, G 0.112, Y -0.285, E 0.091, Q -0.081, L 0.026, C 0.123
E36: P -0.783, A -0.446, H -0.196, W -0.855, V -1.15, D -0.003, R -0.873, G -0.844, F -0.523, K -0.507, L -1.02, M -0.897, Q 0.08
F41: I -0.299, T 0.047, Q 0.375, C -0.425, R 0.501, D 0.344, N 0.581, L -0.487, E 0.354, M 0.059, G 0.417, S 0.324, P 0.43, V -0.452, Y 0.185, H 0.442
H40: I -0.431, P -0.589, M -0.148, A -0.081, T -0.27, S -0.383, Q -0.052, W -0.139, N -0.343, G -0.178, D -0.173, Y 0.272, R 0.096, V -0.376, L -0.41
Q34: M -0.282, S 0.056, K 0.316, I -0.074, A -0.235, T 0.185, C 0.104, F -0.029, V -0.018, Y 0.03, P 0.02, N 0.051, W -0.577, L -0.073, H 0.058, D -0.048, R 0.014
